Measured values taken from publication PMC9629889.

What was measured:
Assay in all cases: MST; Monolith NT.115; TaMTB labelled with the protein labelling kit RED in PBS, ligand (NIb) in a concentration gradient; Kd-Fit; three repeats
[1] = target: TaMTB-His (from E. coli) (Triticum aestivum (cv. Yangmai158 cDNA))
[2] = target: TaMTB(SNP176^C) protein purified from E. coli (Triticum aestivum)
[3] = target: TaMTB(SNP176^A) protein purified from E. coli (Triticum aestivum)

B1: NIb protein purified from E. coli (natural protein)
chain: ASDILSKINNSILGFGSDLKGQLVQPITPALRTRFEALFGGGSFELVGTMNKGLIDKHTIVGENDNVHDFMREHPTFAWLQGFMDEYAPSVLNYTAYYKDLCKYNRKKHQLSFNPHELRSATAGMIRMLEDAGLTQGDVRTPQQVVSDMQWNTSAGPSYQGKKRDVCAHLSEQEVLHLAETSRQQFLACNSIGIWNGSLKAELRTIEKVEAEKTRVFTASPITSLFAMKFYVDDFNKKFYATNLKAPHTVGINKFSRGWEMLHDKLNRPGWLHGSGDGSRFDSSIDPFFFDIIKEIRKHFLPVEHHRAIDLIYDEILNTNICLANGMVIRKNVGNNSGQPSTVVDNTLVLMVSFLYAYIHKTGDHMLKKLNDRFVFVCNGDDNKFAISPEFDAEFGHDFSPELTELGLTYEFDDITDDICANPYMSLTMVRTPFGIGFSLPVERIVAIMQWAKKGGVLHSYLAGISAIYESFNTPKLFKSVYAYLLWLTEEHGSDILAAMTGTATALPIPSMLDVYRLHYGDSSIELQ
modifications: not checked
[1]
  Kd: 1.12 µM
[2]
  Kd: 0.11 µM
[3]
  Kd: 0.73 µM
